Assay results published in patent US20050191302.

Target: recombinant TIMP-1 (Biogenesis, Poole, UK)

B1: recombinant human caspase-3 (Calbiochem) (protein)
chain: SGISLDNSYKMDYPEMGLCIIINNKNFHKSTGMTSRSGTDVDAANLRETFRNLKYEVRNKNDLTREEIVELMRDVSKEDHSKRSSFVCVLLSHGEEGIIFGTNGPVDLKKITNFFRGDRCRSLTGKPKLFIIQACRGTELDCGIETDSGVDDDMACHKIPVEADFLYAYSTAPGYYSWRNSKDGSWFIQSLCAMLKQYADKLEFMHILTRVNRKVATEFESFSFDATFHAKKQIPCIVSMLTKELYFYH
Q: With B1 as the protein, how does the “caspase-3 activity (colorimetric substrate assay; recombinant caspase-3 incubated with TIMP-1 at 285-2850 ng/ml for 1 hour before the substrate was added)” value read?
A: Its value is “TIMP-1 did not reduce caspase-3 activity directly (data not shown)”.
